Data from publication PMC4389572.
Residue numbers refer to the chain shown, from its start.

B1: SH3_(lin-wt), linear N-terminal SH3 domain of c-Crk (residues 134-190 with an additional Gly191) (domain or fragment)
chain: AEYVRALFDFNGNDEEDLPFKKGDILRIRDKPEEQWWNAEDSEGKRGMIPVPYVEKYG
B2: SH3_(circ-wt), backbone-cyclized N-terminal SH3 domain of c-Crk (Cys-Gly + residues 134-191) (domain or fragment)
chain: CGAEYVRALFDFNGNDEEDLPFKKGDILRIRDKPEEQWWNAEDSEGKRGMIPVPYVEKYG
modifications: backbone cyclized: cyclo-[...], peptide bond between the N-terminal Cys and the C-terminal Gly191
B3: SH3_(circ-Δ), backbone-cyclized N-terminal SH3 domain of c-Crk lacking Ala134 and Glu135 (Cys + residues 136-191) (domain or fragment)
chain: CYVRALFDFNGNDEEDLPFKKGDILRIRDKPEEQWWNAEDSEGKRGMIPVPYVEKYG
modifications: backbone cyclized: cyclo-[...], peptide bond between the N-terminal Cys and the C-terminal Gly191
B4: SH3_(circ-GΔ), backbone-cyclized N-terminal SH3 domain of c-Crk lacking Ala134 and Glu135 (Cys-Gly + residues 136-191) (domain or fragment)
chain: B1 chain with A1C, E2G
modifications: backbone cyclized: cyclo-[...], peptide bond between the N-terminal Cys and the C-terminal Gly191

Target: C3G-based poly-Pro peptide ligand
Experiment: other fluorescence titration; fluorescence-based titration assay as described in Camarero et al., 2001b; conditions not given here

Row | Binder | Kd [nM]
1 | B1 | 870
2 | B2 | 890
3 | B3 | 430
4 | B4 | 470
